According to paper doi:10.1101/625327:

Columns and labels:
Test in all cases: SPR
[1] = molecular target: M/N120 (UniProt Q9UBB5)
[2] = molecular target: M/N60 (UniProt Q9UBB5)
[3] = molecular target: M/N20 (UniProt Q9UBB5)

Measured: Kd

P15 (from UniProt Q86YP4 137-178) (domain or fragment)
3 nM: all assays above
